For 8 sequences, Kd results are on record in the Immune Epitope Database (IEDB).

One experiment deals with HLA-A*02:06. The experiment is described as follows: IEDB peptide-MHC binding, purified MHC/competitive/fluorescence; filed as Kd, often an IC50 or EC50 that approximates it; ≥ and ≤ were set here for values at or beyond the usual limits of such assays.
For a further experiment, the target named is HLA-B*15:01. As to the kind of experiment: IEDB peptide-MHC binding, purified MHC/direct/fluorescence; filed as Kd, often an IC50 or EC50 that approximates it; ≥ and ≤ were set here for values at or beyond the usual limits of such assays.
Experiment [1] has as its target HLA-B*18:01. The description is as above. As to conditions: source organism: Escherichia coli O157:H7.
For experiment [2], the target named is HLA-A*02:01. The experiment is described as above.
The target in a further experiment is HLA-B*27:05. Described as above.
Another experiment has as its target HLA-A*03:01. The description is as above.
A further experiment addresses HLA-B*48:01. Described as above. The conditions noted are these: source organism: Escherichia coli O157:H7.
Experiment [3] concerns the target HLA-A*68:02. The experiment is described as above. As to conditions: source organism: Escherichia coli O157:H7.
The target of experiment [4] is HLA-B*46:01. Described as above. The conditions noted are these: source organism: Escherichia coli O157:H7.
Another experiment addresses HLA-A*11:01. The experiment is described as above.
A further experiment addresses HLA-B*15:17. Described as above. As to conditions: source organism: Escherichia coli O157:H7.
The target of the next experiment is HLA-A*31:01. The description is as above.
In the next experiment the target is HLA-B*57:01. The description is as above. As to conditions: source organism: Escherichia coli O157:H7.
A further experiment concerns the target HLA-B*07:02. Described as above.
A further experiment has as its target HLA-A*01:01. The description is as above.
Another experiment deals with HLA-B*40:01. The experiment is described as above.
The target in the next experiment is HLA-B*58:01. Described as above.
For another experiment, the target named is HLA-A*02:12. As to the kind of experiment: IEDB peptide-MHC binding, purified MHC/competitive/fluorescence; filed as Kd, often an IC50 or EC50 that approximates it; ≥ and ≤ were set here for values at or beyond the usual limits of such assays.
The next experiment addresses HLA-A*02:19. Described as above.
For experiment [5], the target named is HLA-B*18:01. The description is as above. The conditions noted are these: source organism: Vibrio cholerae O395.
The target in experiment [6] is HLA-A*02:01. The description is as above.
Another experiment concerns the target HLA-A*29:02. Described as above. As to conditions: source organism: Vibrio cholerae O395.
Another experiment deals with HLA-B*39:01. The experiment is described as above. As to conditions: source organism: Vibrio cholerae O395.
In a further experiment the target is HLA-A*02:03. The experiment is described as above.
The next experiment concerns the target HLA-A*02:11. Described as above.
The target in experiment [7] is HLA-A*68:02. The description is as above. As to conditions: source organism: Vibrio cholerae O395.
The target of experiment [8] is HLA-B*46:01. The description is as above. The conditions noted are these: source organism: Vibrio cholerae O395.
A further experiment addresses HLA-A*02:16. The description is as above. The conditions noted are these: source organism: Vibrio cholerae O395.
Experiment [9] has as its target HLA-A*69:01. The description is as above.
In experiment [10] the target is HLA-A*26:01. Described as above. As to conditions: source organism: Vibrio cholerae O395.
The next experiment deals with HLA-B*08:01. The experiment is described as follows: IEDB peptide-MHC binding, purified MHC/direct/fluorescence; filed as Kd, often an IC50 or EC50 that approximates it; ≥ and ≤ were set here for values at or beyond the usual limits of such assays.
Another experiment concerns the target HLA-A*24:03. Described as above.
Another experiment concerns the target HLA-A*30:01. Described as above.
Experiment [11] concerns the target HLA-A*69:01. Described as above.
Experiment [12] has as its target HLA-A*26:01. The experiment is described as above.
A further experiment deals with HLA-B*44:02. Described as above. The conditions noted are these: source organism: Rickettsia prowazekii.
[13] abbreviates: source organism: Escherichia coli O157:H7.
The mark [14] stands for this setting: source organism: Vibrio cholerae O395.
The mark [15] stands for this setting: source organism: Pasteurella multocida.
The mark [16] stands for this setting: source organism: Escherichia coli 536.
[17] abbreviates: source organism: Escherichia coli O6.
The mark [18] stands for this setting: source organism: Rickettsia prowazekii.
Setting [19] is: source organism: Human immunodeficiency virus 1.
Setting [20] is: source organism: Vibrio vulnificus YJ016.
Setting [21] is: source organism: Vibrio vulnificus.
Setting [22] is: source organism: Yersinia pestis Nepal516.

One may read the Kd as the constant that tells how readily two partners part at equilibrium. High values mean weaker binding, low ones tighter binding. Regarding RGRGVAIHR, the Kd was 0.569 µM with HLA-A*02:06 (source organism: Shigella dysenteriae 1012); at least 20 µM with HLA-B*15:01 (setting [13]); at least 20 µM with HLA-B*18:01 [1]; at least 20 µM with HLA-A*02:01 [2] (setting [13]); at least 20 µM in the experiment with HLA-B*27:05 (setting [13]); 0.487 µM with HLA-A*03:01 (setting [13]). Further, the Kd in the experiment with HLA-B*48:01 was at least 20 µM; with HLA-A*68:02 [3], at least 20 µM; in the experiment with HLA-B*46:01 [4], at least 20 µM; with HLA-A*11:01 (setting [13]) it was at least 20 µM; with HLA-B*15:17 it was at least 20 µM; in the experiment with HLA-A*31:01 (setting [13]), 0.0066 µM. In addition, the Kd in the experiment with HLA-B*57:01, with HLA-B*07:02 (setting [13]), with HLA-A*01:01 (setting [13]), with HLA-B*40:01 (setting [13]) and with HLA-B*58:01 (setting [13]) was at least 20 µM in each case.
On to RVHFHRFMY, for which the Kd in the experiment with HLA-A*02:12 (setting [14]) is at least 20 µM; with HLA-A*02:19 (setting [14]), at least 20 µM; with HLA-B*18:01 [5], at least 20 µM; with HLA-A*02:01 [6] (setting [14]), at least 20 µM; with HLA-A*29:02, 0.0042 µM; with HLA-B*39:01 it was at least 20 µM. Moreover, the Kd with HLA-A*02:03 (setting [14]), with HLA-A*02:11 (setting [14]), with HLA-A*68:02 [7], with HLA-B*46:01 [8], with HLA-A*02:16 and in the experiment with HLA-A*69:01 [9] (setting [14]) was at least 20 µM each time. The Kd in the experiment with HLA-A*26:01 [10] was at least 20 µM.
On to NNKSRLVAF, for which the equilibrium dissociation constant (Kd) is at least 20 µM with HLA-B*15:01 (setting [15]); 0.161 µM with HLA-B*08:01 (setting [15]); at least 20 µM with HLA-A*24:03 (setting [15]); at least 20 µM in the experiment with HLA-A*02:01 [2] (setting [15]); at least 20 µM with HLA-B*27:05 (setting [15]); at least 20 µM in the experiment with HLA-A*03:01 (setting [15]). Moreover, the Kd with HLA-A*30:01 (setting [15]) was 15.7 µM; with HLA-A*11:01 (setting [15]), at least 20 µM; with HLA-A*69:01 [11] (setting [15]), at least 20 µM; in the experiment with HLA-A*31:01 (setting [15]), at least 20 µM; in the experiment with HLA-A*01:01 (setting [15]) it was at least 20 µM; with HLA-B*40:01 (setting [15]), at least 20 µM. The equilibrium dissociation constant (Kd) with HLA-B*58:01 (setting [15]) and in the experiment with HLA-A*26:01 [12] (setting [15]) was at least 20 µM each time.
As for RYICPVQQI, the Kd with HLA-B*15:01 (setting [16]) was at least 20 µM; in the experiment with HLA-B*08:01 (setting [16]), at least 20 µM; in the experiment with HLA-A*24:03 (setting [17]), 0.00253 µM; with HLA-A*02:01 [2] (setting [16]), at least 20 µM; in the experiment with HLA-B*27:05 (setting [16]), at least 20 µM; with HLA-A*03:01 (setting [16]), at least 20 µM. Moreover, the Kd with HLA-A*30:01 (setting [17]) is 4.19 µM; with HLA-A*69:01 [11] (setting [16]), at least 20 µM; with HLA-B*07:02 (setting [16]), at least 20 µM; with HLA-A*01:01 (setting [16]), at least 20 µM; with HLA-B*40:01 (setting [16]), at least 20 µM; in the experiment with HLA-B*58:01 (setting [17]), 9.09 µM. This sequence returned a Kd with HLA-A*26:01 [12] (setting [16]) of at least 20 µM.
Consider VVNYDNSTK, for which the Kd with HLA-B*15:01 (setting [18]) was at least 20 µM; with HLA-B*08:01 (setting [18]), at least 20 µM; with HLA-A*24:03 (setting [18]), at least 20 µM; with HLA-A*02:01 [2] (setting [18]), at least 20 µM; with HLA-B*27:05 (setting [18]) it was at least 20 µM; with HLA-A*03:01 (setting [18]), 0.445 µM. For the same sequence, the Kd with HLA-A*30:01 (setting [18]) was 1.74 µM; in the experiment with HLA-A*11:01 (setting [18]), 0.0451 µM; with HLA-A*69:01 [11] (setting [18]), at least 20 µM; with HLA-A*31:01 (setting [18]), 5.51 µM; in the experiment with HLA-B*07:02 (setting [18]) it was at least 20 µM; with HLA-A*01:01 (setting [18]) it was at least 20 µM. For the same sequence, the Kd with HLA-B*40:01 (setting [18]), with HLA-B*58:01 (setting [18]), with HLA-B*44:02 and in the experiment with HLA-A*26:01 [12] (setting [18]) was at least 20 µM throughout.
NLGQHIYET: the Kd with HLA-A*02:12 (setting [19]) turned out to be 0.323 µM; with HLA-A*02:19 (setting [19]), 0.146 µM; with HLA-A*02:01 [6] (setting [19]), 9 µM; with HLA-A*02:03 (setting [19]), 0.116 µM; in the experiment with HLA-A*02:11 (setting [19]), 0.0335 µM; with HLA-A*02:06 (setting [19]) it was 0.11 µM. In addition, the Kd with HLA-A*69:01 [9] (setting [19]) was at least 20 µM.
Take DAYGFHNYK: the Kd in the experiment with HLA-B*15:01 (setting [20]) is at least 20 µM; with HLA-B*08:01 (setting [20]) it was at least 20 µM; with HLA-A*24:03 (setting [20]), at least 20 µM; in the experiment with HLA-A*02:01 [2] (setting [20]), at least 20 µM; with HLA-A*03:01 (setting [21]) it was 0.216 µM; in the experiment with HLA-A*30:01 (setting [21]), 1.11 µM. The Kd with HLA-A*11:01 (setting [21]) was 0.13 µM; with HLA-A*69:01 [11] (setting [20]), at least 20 µM; with HLA-B*07:02 (setting [20]), at least 20 µM; in the experiment with HLA-A*01:01 (setting [20]) it was at least 20 µM; with HLA-B*40:01 (setting [20]) it was at least 20 µM; with HLA-B*58:01 (setting [20]), at least 20 µM. Moreover, the Kd in the experiment with HLA-A*26:01 [12] (setting [20]) is at least 20 µM.
In the case of SLTPSPLDL, the results for the Kd with HLA-A*02:01 [6] (setting [22]) and with HLA-A*02:06 (setting [22]) were 0.21 µM and 1.39 µM, respectively.
